The target of the assay is T1, wild-type (polymerization-competent) yeast αβ-tubulin (yeast, UniProt P09733 1-447; P02557 1-457).
T1 construct: α-tubulin of yeast; β-tubulin of yeast, wild type; source: overexpressed in Saccharomyces cerevisiae, purified; copies: 1 + 1
As to the kind of experiment: AUC; sedimentation velocity; seven concentrations of TOG1 or TOG2 (44 nM-4.5 μM) titrated into 0.35 μM αβ-tubulin; 1:1 binding isotherm fitted; RB100 with 20 μM GTP, 20°C. As to conditions: both partners purified.

The text below walks through data of PMC4145800, “A tethered delivery mechanism explains the catalytic action of a microtubule polymerase” (eLife, 2014).

B1: TOG2 domain from Stu2p, TOG2(318-560) (domain or fragment)
chain: MLPEETILDKLPKDFQERITSSKWKDRVEALEEFWDSVLSQTKKLKSTSQNYSNLLGIYGHIIQKDANIQAVALAAQSVELICDKLKTPGFSKDYVSLVFTPLLDRTKEKKPSVIEAIRKALLTICKYYDPLASSGRNEDMLKDILEHMKHKTPQIRMECTQLFNASMKEEKDGYSTLQRYLKDEVVPIVIQIVNDTQPAIRTIGFESFAILIKIFGMNTFVKTLEHLDNLKRKKIEETVKTL
As to B1, binding was put at a Kd of 160 nM and the stoichiometry N (as a rule, the number of molecules, sites or subunits per partner or assembly) came out at 1.
